These results are taken from patent publication US20260274955A1 (JANUX THERAPEUTICS, published 2026).

One experiment addresses T1, Anti-CD28 Fab (SEQ ID NOs: 202, 203).
T1 construct: biotinylated and captured on neutravidin coated plates in the phage ELISA
In words: phage ELISA on captured Fab, wells pre-incubated with CD28 antigen (competitor: CD28).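 Note: bound clonal phage detected with an HRP-linked anti-M13 antibody, compared against wells that received blocking buffer alone without CD28.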
T1 sequence (VH, as listed by the source, chain 1 of 2): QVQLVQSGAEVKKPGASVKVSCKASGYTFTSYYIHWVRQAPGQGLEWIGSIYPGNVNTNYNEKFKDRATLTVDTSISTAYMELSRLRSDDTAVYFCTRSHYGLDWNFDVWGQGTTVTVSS
T1 sequence (VL, as listed by the source, chain 2 of 2): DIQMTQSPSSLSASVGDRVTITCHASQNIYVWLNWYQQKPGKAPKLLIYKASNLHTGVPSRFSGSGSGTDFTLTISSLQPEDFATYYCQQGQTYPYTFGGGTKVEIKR
Description: (§1) Clonal phage were harvested as crude supernatants and screened via standard ELISAs. […] Prior to the addition of clonal phage, wells were incubated with blocking buffer and CD28 antigen or blocking buffer alone. Without washing or aspirating, clonal phage supernatants were then added to the wells and incubated for a short time. Wells were then washed followed by detection of bound phage using a horse radish conjugated anti-M13 antibody.
On to YCDGHSAQYMHKCL [Phage-234], for which the “Anti-CD28 Fab signal in the presence of CD28” value (“Anti-CD28 Fab signal … of CD28” for short) came to 0.06.

Turning to YCEGHLPMYFLKCM [Phage-270], the “Anti-CD28 Fab signal … of CD28” value worked out at 0.06.

Consider YCDGHAIEYMQKCL [Phage-229], for which the “Anti-CD28 Fab signal … of CD28” value is 0.07.

Take YCEGHSPEYMSHCF [Phage-216]: the “Anti-CD28 Fab signal … of CD28” value came out at 0.09.

On to YCDGHSDQYMWKCL [Phage-261], for which the “Anti-CD28 Fab signal … of CD28” value was 0.11.

Take YCEGHRAEYMEKCL [Phage-288]: the “Anti-CD28 Fab signal … of CD28” value was found to be 0.06.

As to YCEGHADIYMQKCL [Phage-225], the “Anti-CD28 Fab signal … of CD28” value amounted to 0.07.

As to YCEGHAPEHMAKCL [Phage-214], the “Anti-CD28 Fab signal … of CD28” value amounted to 0.1.

Turning to YCQGHMPEYMDKCL [Phage-231], the “Anti-CD28 Fab signal … of CD28” value was determined as 0.07.

For YCEGHAPQYIQKCL [Phage-220], the “Anti-CD28 Fab signal … of CD28” value turned out to be 0.07.

For YCLGHAPQYIQKCL [Phage-243], the “Anti-CD28 Fab signal … of CD28” value was found to be 0.14.

With YCEGHLSQYMQKCL [Phage-259], the “Anti-CD28 Fab signal … of CD28” value turned out to be 0.09.

In the case of YCEGHAAEYMMKCL [Phage-263], the “Anti-CD28 Fab signal … of CD28” value was 0.07.

On to YCEGHLPIYMDKCL [Phage-228], for which the “Anti-CD28 Fab signal … of CD28” value stood at 0.08.

As for YCDGHLIEYMEKCL [Phage-238], the “Anti-CD28 Fab signal … of CD28” value amounted to 0.06.

As to YCDGHLNEYMEKCL [Phage-298], the “Anti-CD28 Fab signal … of CD28” value is 0.06.

As for YCEGHAPQHMDKCL [Phage-240], the “Anti-CD28 Fab signal … of CD28” value came to 0.08.

Consider YCEGHSDEYMLKCL [Phage-223], for which the “Anti-CD28 Fab signal … of CD28” value was found to be 0.07.

Take YCEGHAPEYMMKCI [Phage-224]: the “Anti-CD28 Fab signal … of CD28” value was found to be 0.06.

Take YCEGHSMQHMAKCL [Phage-217]: the “Anti-CD28 Fab signal … of CD28” value was 0.08.

On to YCDGHAPEYVMKCL [Phage-232], for which the “Anti-CD28 Fab signal … of CD28” value turned out to be 0.1.

Regarding YCEGHAIQYMSKCL [Phage-239], the “Anti-CD28 Fab signal … of CD28” value came to 0.06.

Regarding YCAGHLPMYMHKCL [Phage-264], the “Anti-CD28 Fab signal … of CD28” value was found to be 0.18.

As to YCAGHIEEYMWKCL [Phage-230], the “Anti-CD28 Fab signal … of CD28” value is 0.06.

In the case of YCDGHELRYMAKCL [Phage-221], the “Anti-CD28 Fab signal … of CD28” value was found to be 0.07.

Regarding YCDGHLPIYMTQCL [Phage-271], the “Anti-CD28 Fab signal … of CD28” value was 0.08.

As to YCDGHFREYMQKCL [Phage-242], the “Anti-CD28 Fab signal … of CD28” value came to 0.06.

Regarding YCAGHSPEFMEKCL [Phage-297], the “Anti-CD28 Fab signal … of CD28” value turned out to be 0.06.

On to YCDGHVGEYMQKCL [Phage-233], for which the “Anti-CD28 Fab signal … of CD28” value is 0.08.

Take YCDGHAEQYMEKCL [Phage-215]: the “Anti-CD28 Fab signal … of CD28” value amounted to 0.07.

With YCMGHQPEYMQKCL [Phage-291], the “Anti-CD28 Fab signal … of CD28” value turned out to be 0.08.

With YCEGHLAEYMDKCL [Phage-272], the “Anti-CD28 Fab signal … of CD28” value was determined as 0.07.

For the molecule YCEGHAPEYMYKCL [Phage-235], the “Anti-CD28 Fab signal … of CD28” value is 0.07.

For YCDGHLPQYMSKCL [Phage-262], the “Anti-CD28 Fab signal … of CD28” value was determined as 0.1.

As for YCDGHMPQYMSKCL [Phage-266], the “Anti-CD28 Fab signal … of CD28” value is 0.08.

For the molecule YCDGHLPEYQMKCL [Phage-236], the “Anti-CD28 Fab signal … of CD28” value turned out to be 0.08.

Consider YCDGHLWEYMDKCL [Phage-269], for which the “Anti-CD28 Fab signal … of CD28” value is 0.06.

On to YCDGHAQEFMSKCL [Phage-218], for which the “Anti-CD28 Fab signal … of CD28” value was determined as 0.12.

On to YCDGHSAEYLAKCL [Phage-293], for which the “Anti-CD28 Fab signal … of CD28” value stood at 0.08.

A further experiment shares this target. Description: phage ELISA on captured biotinylated Fab.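 Note: wells preblocked with or without CD28 antigen, then clonal phage supernatant added briefly, washed, and bound phage read out by ELISA using HRP-linked anti-M13 antibody.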
Target sequence in this assay (VH, as listed by the source, chain 1 of 2): as the sequence (VH, as listed by the source, chain 1 of 2) above
Target sequence in this assay (VL, as listed by the source, chain 2 of 2): as the sequence (VL, as listed by the source, chain 2 of 2) above
Description: as §1
On to YCDGHSAQYMHKCL [Phage-234], for which the “Anti-CD28 Fab signal” value worked out at 2.05.

Regarding YCEGHLPMYFLKCM [Phage-270], the “Anti-CD28 Fab signal” value was 1.97.

YCDGHAIEYMQKCL [Phage-229]: the “Anti-CD28 Fab signal” value worked out at 2.05.

Take YCEGHSPEYMSHCF [Phage-216]: the “Anti-CD28 Fab signal” value amounted to 2.08.

As to YCDGHSDQYMWKCL [Phage-261], the “Anti-CD28 Fab signal” value was found to be 2.

YCEGHRAEYMEKCL [Phage-288]: the “Anti-CD28 Fab signal” value came to 1.93.

As to YCEGHADIYMQKCL [Phage-225], the “Anti-CD28 Fab signal” value stood at 2.06.

For the molecule YCEGHAPEHMAKCL [Phage-214], the “Anti-CD28 Fab signal” value was 2.08.

YCQGHMPEYMDKCL [Phage-231]: the “Anti-CD28 Fab signal” value was determined as 2.05.

As to YCEGHAPQYIQKCL [Phage-220], the “Anti-CD28 Fab signal” value was found to be 2.07.

Turning to YCLGHAPQYIQKCL [Phage-243], the “Anti-CD28 Fab signal” value is 2.04.

For YCEGHLSQYMQKCL [Phage-259], the “Anti-CD28 Fab signal” value turned out to be 2.

Consider YCEGHAAEYMMKCL [Phage-263], for which the “Anti-CD28 Fab signal” value was determined as 1.99.

As for YCEGHLPIYMDKCL [Phage-228], the “Anti-CD28 Fab signal” value turned out to be 2.06.

As to YCDGHLIEYMEKCL [Phage-238], the “Anti-CD28 Fab signal” value is 2.04.

For the molecule YCDGHLNEYMEKCL [Phage-298], the “Anti-CD28 Fab signal” value was 1.91.

For the molecule YCEGHAPQHMDKCL [Phage-240], the “Anti-CD28 Fab signal” value was determined as 2.04.

Consider YCEGHSDEYMLKCL [Phage-223], for which the “Anti-CD28 Fab signal” value turned out to be 2.06.

Consider YCEGHAPEYMMKCI [Phage-224], for which the “Anti-CD28 Fab signal” value came out at 2.06.

For the molecule YCEGHSMQHMAKCL [Phage-217], the “Anti-CD28 Fab signal” value worked out at 2.07.

Consider YCDGHAPEYVMKCL [Phage-232], for which the “Anti-CD28 Fab signal” value came to 2.05.

Turning to YCEGHAIQYMSKCL [Phage-239], the “Anti-CD28 Fab signal” value came to 2.04.

As for YCAGHLPMYMHKCL [Phage-264], the “Anti-CD28 Fab signal” value amounted to 1.99.

With YCAGHIEEYMWKCL [Phage-230], the “Anti-CD28 Fab signal” value stood at 2.05.

On to YCDGHELRYMAKCL [Phage-221], for which the “Anti-CD28 Fab signal” value was found to be 2.07.

Consider YCDGHLPIYMTQCL [Phage-271], for which the “Anti-CD28 Fab signal” value was 1.97.

On to YCDGHFREYMQKCL [Phage-242], for which the “Anti-CD28 Fab signal” value was 2.04.

Turning to YCAGHSPEFMEKCL [Phage-297], the “Anti-CD28 Fab signal” value was determined as 1.91.

As for YCDGHVGEYMQKCL [Phage-233], the “Anti-CD28 Fab signal” value was 2.05.

In the case of YCDGHAEQYMEKCL [Phage-215], the “Anti-CD28 Fab signal” value is 2.08.

With YCMGHQPEYMQKCL [Phage-291], the “Anti-CD28 Fab signal” value is 1.93.

YCEGHLAEYMDKCL [Phage-272]: the “Anti-CD28 Fab signal” value worked out at 1.96.

As to YCEGHAPEYMYKCL [Phage-235], the “Anti-CD28 Fab signal” value amounted to 2.05.

YCDGHLPQYMSKCL [Phage-262]: the “Anti-CD28 Fab signal” value is 2.

On to YCDGHMPQYMSKCL [Phage-266], for which the “Anti-CD28 Fab signal” value turned out to be 1.98.

Take YCDGHLPEYQMKCL [Phage-236]: the “Anti-CD28 Fab signal” value was 2.05.

For the molecule YCDGHLWEYMDKCL [Phage-269], the “Anti-CD28 Fab signal” value stood at 1.97.

As for YCDGHAQEFMSKCL [Phage-218], the “Anti-CD28 Fab signal” value is 2.07.

Turning to YCDGHSAEYLAKCL [Phage-293], the “Anti-CD28 Fab signal” value was 1.93.

The target of the next experiment is Anti-CD28 Fab (SEQ ID NOs: 202, 203). Description: phage binding ELISA on captured Fab.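 Note: clonal phage supernatants added briefly to wells pre-incubated with CD28 antigen or with blocking buffer only, then washed, bound phage read by ELISA using HRP-coupled anti-M13 antibody.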
Target sequence in this assay (VH, as listed by the source, chain 1 of 2): as the sequence (VH, as listed by the source, chain 1 of 2) above
Target sequence in this assay (VL, as listed by the source, chain 2 of 2): as the sequence (VL, as listed by the source, chain 2 of 2) above
Description: as §1
Consider YCEGHAPQYMSKCL [Phage-755], for which the “Anti-CD28 Fab (SEQ ID NOs: 202, 203) signal” value amounted to 1.04.

For the molecule YCEGHSSEYLGKCL [Phage-750], the “Anti-CD28 Fab (SEQ ID NOs: 202, 203) signal” value is 1.05.

Take YCDGHLPRYMEKCM [Phage-751]: the “Anti-CD28 Fab (SEQ ID NOs: 202, 203) signal” value was found to be 1.05.

As for YCDGHSSAYIDKCL [Phage-752], the “Anti-CD28 Fab (SEQ ID NOs: 202, 203) signal” value stood at 1.05.

As for YCEGHLPSYLAKCL [Phage-753], the “Anti-CD28 Fab (SEQ ID NOs: 202, 203) signal” value amounted to 1.05.

With YCDGHDARYMTKCL [Phage-756], the “Anti-CD28 Fab (SEQ ID NOs: 202, 203) signal” value was 1.04.

For YCDGHAPEFIRKCL [Phage-754], the “Anti-CD28 Fab (SEQ ID NOs: 202, 203) signal” value was found to be 1.05.

The target is the same in another experiment. In words: phage binding ELISA on captured Fab, competitor CD28 antigen.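 Note: clonal phage supernatant binding in wells preincubated with CD28 antigen in blocking buffer, detected by HRP-conjugated anti-M13 antibody ELISA, compared with blocking buffer alone.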
Target sequence in this assay (VH, as listed by the source, chain 1 of 2): as the sequence (VH, as listed by the source, chain 1 of 2) above
Target sequence in this assay (VL, as listed by the source, chain 2 of 2): as the sequence (VL, as listed by the source, chain 2 of 2) above
Description: as §1
In the case of YCEGHAPQYMSKCL [Phage-755], the “Anti-CD28 Fab signal … of CD28” value was 0.08.

With YCEGHSSEYLGKCL [Phage-750], the “Anti-CD28 Fab signal … of CD28” value was found to be 0.09.

As for YCDGHLPRYMEKCM [Phage-751], the “Anti-CD28 Fab signal … of CD28” value came out at 0.06.

YCDGHSSAYIDKCL [Phage-752]: the “Anti-CD28 Fab signal … of CD28” value came to 0.06.

Consider YCEGHLPSYLAKCL [Phage-753], for which the “Anti-CD28 Fab signal … of CD28” value was determined as 0.06.

YCDGHDARYMTKCL [Phage-756]: the “Anti-CD28 Fab signal … of CD28” value amounted to 0.09.

Turning to YCDGHAPEFIRKCL [Phage-754], the “Anti-CD28 Fab signal … of CD28” value worked out at 0.07.
